In patent publication US20240018526, “DEOXYRIBONUCLEIC ACID-BASED BIOSENSOR AND ASSOCIATED METHODS” (FACible BioDiagnostics LLC, published 2024):

Molecular target: SARS-CoV-2 spike glycoprotein S1 (SARS-CoV-2, UniProt P0DTC2 P0DTC2:14-685)

B1: N6-D2-biotin aptamer (ssDNA)
DNA: CACGGTTCGAGCTGGTACTAAACTTCGCTAAACAACACGCAGCATTTCATCGGGTCCAAAAGGGGCTGCTCGGGATTGCGGATATGGACCCGTCAGCTTA
modifications: 5'-biotin (5BiosG), as SEQ ID NO 96
B1: binds.
